In the supplement of paper PMC9942255 one finds AmyQ secretion efficiency data, which are given here for 108 sequences.

Several values for one entry are separate records, joined by “and”; a condition that tells them apart may be missing. Equal values may be shown once.

In the series the test system is Bacillus subtilis DB104 (SP-AmyQ fusion secretion). Nature of the series: AmyQ secretion efficiency, weighted average sort bin (1 = best secretion, 10 = worst) (bin number (weighted average, 1-10)); higher = lower secretion efficiency. A digest of the protocol: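 B. subtilis DB104 library expressing mature AmyQ fused to designed signal peptides (amyE-integrated) was encapsulated at about 0.3 cells per ~65 nL alginate bead with fluorescein-starch, grown about 13 h at room temperature and nile red stained. Occupied beads were sorted by large-particle flow cytometry into 10 equally populated bins by green/red fluorescence ratio, and each bin's amplicons were Illumina-sequenced. Secretion score is the read-frequency-weighted average bin number, normalised to beads per bin, excluding low-abundance sequences.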

In turn, MIKGIIRFLLVSFVLFFALSTGITGVQAAPA had an AmyQ secretion efficiency of 2.2.

MIKKCSVCLWILVLLLSCLSGKSAYAATS returned an AmyQ secretion efficiency of 2.24.

In the case of MIKKLAAGLTASAIVGTTLVVTPAEAATI, the AmyQ secretion efficiency stood at 2.3.

Take MIKLVLCVSILAVILSGVALTQLS: the AmyQ secretion efficiency amounted to 7.36.

MIKRFSLIMMTGLLFGLTSPAFAAEK gave an AmyQ secretion efficiency of 4.15.

Turning to MIKVLMAFIICLSLILSVLAAPPSGAKAESV, the AmyQ secretion efficiency was 1.52.

For the sequence MILANSVSALTPSTTLAITAKAKEL, the AmyQ secretion efficiency came out at 8.58.

Regarding MILITINIITMFIAAAVISLTGTAEAAEK, the AmyQ secretion efficiency is 4.83.

With MILKSKLLLSCLALSTVFVATTIANAPTH, the AmyQ secretion efficiency was found to be 6.38.

MILRKVLTGSVLSLGLLVSASPAFATSP returned an AmyQ secretion efficiency of 1.73.

Sequence MILTKVLTGSVLSLGLLVSASPAFATSP had an AmyQ secretion efficiency of 1.75.

MIMLWRSLALCGLALTLAPCAQAAEP gave an AmyQ secretion efficiency of 4.91.

“MIQKRKRTVSFRLVLMCTLLFVSLPITKTSAVNG [wt_amyQ]” had an AmyQ secretion efficiency of 1.16.

On to MIRSISIFITCLLITLLTMGGMIASPASAAGT, for which the AmyQ secretion efficiency amounted to 2.35.

Sequence MISKKLWISLLFALTLIFTMAFSNMSAQAAGK gave an AmyQ secretion efficiency of 1.95.

MITAAAVLLSLGLVFGFSYGAGHVAEAKTK yielded an AmyQ secretion efficiency of 3.09.

In the case of MITTIVITCVMAASLTLGSLLPAGYASAKED, the AmyQ secretion efficiency came to 4.06.

In the case of MIVIILLFISIIVFLKRKKKKIQPQPS, the AmyQ secretion efficiency is 8.16.

For the sequence MIVIILLFISIIVFLSVIQPQPD, the AmyQ secretion efficiency came to 4.48.

For the sequence MIVIILLFISIIVFLSVIQPQPS, the AmyQ secretion efficiency is 8.27 and 5.9 and 6.5.

Sequence MIVIILLFISIIVFLVVTIQPQPS registered an AmyQ secretion efficiency of 8.71.

The sequence MIVIKRKRKRIIVFLSVIQPQPS showed an AmyQ secretion efficiency of 8.52.

In the case of MIVIMSFNLIILLFISIIVFLSVIQPQPS, the AmyQ secretion efficiency is 6.9.

The sequence MIVIRKRKISIIVFLSVIQPQPS registered an AmyQ secretion efficiency of 5.82.

Take MIVLSTIITFNFIILLFISIIVFLSVIQPQPS: the AmyQ secretion efficiency was determined as 5.66.

With MIVSRQTRQRIIVFLSVIQPQPS, the AmyQ secretion efficiency amounted to 6.7.

For MKFVKRRGSRGQTTSTLSVTSLFALQPSAKAAEH, the AmyQ secretion efficiency was 5.84.

On to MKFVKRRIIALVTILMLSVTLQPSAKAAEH, for which the AmyQ secretion efficiency was found to be 3.15.

The sequence MKFVKRRIIALVTILMLSVTSLFADEEEAKAAEH gave an AmyQ secretion efficiency of 2.36.

On to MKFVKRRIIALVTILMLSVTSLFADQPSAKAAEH, for which the AmyQ secretion efficiency stood at 3.52.

Sequence MKFVKRRIIALVTILMLSVTSLFAKKRRRAKAAEH returned an AmyQ secretion efficiency of 7.85.

For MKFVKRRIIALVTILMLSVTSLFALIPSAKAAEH, the AmyQ secretion efficiency was found to be 2.54.

In the case of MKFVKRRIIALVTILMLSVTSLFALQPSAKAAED, the AmyQ secretion efficiency worked out at 2.86.

Regarding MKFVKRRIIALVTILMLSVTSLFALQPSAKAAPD, the AmyQ secretion efficiency stood at 2.11.

Sequence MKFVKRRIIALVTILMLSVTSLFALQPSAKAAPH came in with an AmyQ secretion efficiency of 2.38.

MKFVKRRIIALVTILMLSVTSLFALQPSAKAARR: the AmyQ secretion efficiency is 1.74.

As to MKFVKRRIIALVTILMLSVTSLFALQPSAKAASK, the AmyQ secretion efficiency stood at 2.32.

As to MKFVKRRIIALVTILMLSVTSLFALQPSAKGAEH, the AmyQ secretion efficiency was found to be 3.59.

In the case of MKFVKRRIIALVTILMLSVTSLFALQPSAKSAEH, the AmyQ secretion efficiency was determined as 2.64.

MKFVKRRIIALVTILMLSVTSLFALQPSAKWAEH yielded an AmyQ secretion efficiency of 5.19.

For the sequence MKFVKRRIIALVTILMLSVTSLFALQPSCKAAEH, the AmyQ secretion efficiency was 2.68.

“MKFVKRRIIALVTILMLSVTSLFALQPSFTPSPFFTVAKAAEH” registered an AmyQ secretion efficiency of 2.95.

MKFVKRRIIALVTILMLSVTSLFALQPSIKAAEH returned an AmyQ secretion efficiency of 3.57.

For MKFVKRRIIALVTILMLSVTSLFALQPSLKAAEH, the AmyQ secretion efficiency stood at 2.75.

Sequence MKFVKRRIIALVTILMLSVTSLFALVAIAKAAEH showed an AmyQ secretion efficiency of 4.46.

The sequence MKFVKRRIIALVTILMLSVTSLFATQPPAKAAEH had an AmyQ secretion efficiency of 2.78.

As for MKFVKRRIRKKRRRLMLSVTSLFALQPSAKAAEH, the AmyQ secretion efficiency amounted to 6.62.

As to MKFVKRRIRRKRTILMLSVTSLFALQPSAKAAEH, the AmyQ secretion efficiency worked out at 3.06.

The sequence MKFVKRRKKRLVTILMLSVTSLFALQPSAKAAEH registered an AmyQ secretion efficiency of 2.78.

As to MKGWMRTTLVVLFTIVTFGLVSPPAALMADKP, the AmyQ secretion efficiency was determined as 7.14.

As to MKIRKIKKKKRKSFGMLISAVPALAAGT, the AmyQ secretion efficiency worked out at 7.53.

MKIRKIKKSSALSFGMLISAVPALAAGT gave an AmyQ secretion efficiency of 4.2.

For the sequence MKIRKILLMMALFFMMLISAVPALAAGT, the AmyQ secretion efficiency was found to be 2.45.

Sequence MKIRKILLSSALSFGMLEDDDEDALAAGT registered an AmyQ secretion efficiency of 5.74.

With MKIRKILLSSALSFGMLEDEVPALAAGT, the AmyQ secretion efficiency was 2.62.

The sequence MKIRKILLSSALSFGMLEEDDPALAAGT displayed an AmyQ secretion efficiency of 2.69.

For MKIRKILLSSALSFGMLISAVPALAAEE, the AmyQ secretion efficiency stood at 2.95.

In the case of MKIRKILLSSALSFGMLISAVPALAAGR, the AmyQ secretion efficiency was found to be 2.62.

Turning to MKIRKILLSSALSFGMLISAVPALAAKK, the AmyQ secretion efficiency is 1.84.

MKIRKILLSSALSFGMLISAVPALARKR displayed an AmyQ secretion efficiency of 5.61.

MKIRKILLSSALSFGMLISAVPALFAGT: the AmyQ secretion efficiency amounted to 5.97.

Sequence MKIRKILLSSALSFGMLISAVPALGAGT registered an AmyQ secretion efficiency of 3.88.

In turn, MKIRKILLSSALSFGMLISAVPALLAGT yielded an AmyQ secretion efficiency of 4.82.

In turn, MKIRKILLSSALSFGMLISAVPALMAGT gave an AmyQ secretion efficiency of 6.44.

Sequence MKIRKILLSSALSFGMLISAVPALNAGT displayed an AmyQ secretion efficiency of 6.27.

The sequence MKIRKILLSSALSFGMLISAVPALTAGT yielded an AmyQ secretion efficiency of 4.42.

MKIRKILLSSALSFGMLISAVPCLAAGT gave an AmyQ secretion efficiency of 2.

Consider MKIRKILLSSALSFGMLISAVPGLAAGT, for which the AmyQ secretion efficiency worked out at 3.97.

As for MKIRKILLSSALSFGMLISAVPVLAAGT, the AmyQ secretion efficiency turned out to be 3.66.

Consider MKIRKILLSSALSFGMLKDKVPALAAGT, for which the AmyQ secretion efficiency turned out to be 6.36.

On to MKIRKILLSSALSFGMLKKRRKKALAAGT, for which the AmyQ secretion efficiency is 6.86.

Consider MKIRKILLSSALSFGMLLILTSISAVPALAAGT, for which the AmyQ secretion efficiency is 2.99.

MKIRKILLSSALSFGMLRKRVPALAAGT: the AmyQ secretion efficiency is 6.53.

In turn, MKIRKILLSSALSFGMLVISAVPALAAGT displayed an AmyQ secretion efficiency of 2.24.

Take MKIRKIRRRKALSFGMLISAVPALAAGT: the AmyQ secretion efficiency was 5.54.

In the case of MKIRKLIFNMFLILLSSALSFGMLISAVPALAAGT, the AmyQ secretion efficiency turned out to be 3.62.

MKIRKMFMFILLSSALSFGMLISAVPALAAGT displayed an AmyQ secretion efficiency of 2.01.

In turn, MKIRKQRGYTGLSFGMLISAVPALAAGT registered an AmyQ secretion efficiency of 6.92.

Regarding MKIVLLSALLLLLFAFEPSASGKKL, the AmyQ secretion efficiency was 4.93.

MKKAAAVLLSLGGFSYGAGHVAEAKTK: the AmyQ secretion efficiency turned out to be 6.38.

For the sequence MKKAAAVLLSLGLVFDESYGAGHVAEAKTK, the AmyQ secretion efficiency is 2.18.

The sequence MKKAAAVLLSLGLVFDKGYEPGHVAEAKTK gave an AmyQ secretion efficiency of 2.85.

The sequence MKKAAAVLLSLGLVFEDEDEAGHVAEAKTK came in with an AmyQ secretion efficiency of 5.2.

With MKKAAAVLLSLGLVFFLLTSGFSYGAGHVAEAKTK, the AmyQ secretion efficiency was 3.03.

MKKAAAVLLSLGLVFGFSYGAEAKTK returned an AmyQ secretion efficiency of 2.21.

As for MKKAAAVLLSLGLVFGFSYGAGHVAEAAED, the AmyQ secretion efficiency was found to be 3.87.

On to MKKAAAVLLSLGLVFGFSYGAGHVAEAAKK, for which the AmyQ secretion efficiency was 5.64.

As to MKKAAAVLLSLGLVFGFSYGAGHVAEAATD, the AmyQ secretion efficiency worked out at 3.51.

On to MKKAAAVLLSLGLVFGFSYGAGHVAEAATS, for which the AmyQ secretion efficiency came out at 2.5.

MKKAAAVLLSLGLVFGFSYGAGHVAEADDD showed an AmyQ secretion efficiency of 5.61.

Sequence MKKAAAVLLSLGLVFGFSYGAGHVAECKTK returned an AmyQ secretion efficiency of 4.74.

MKKAAAVLLSLGLVFGFSYGAGHVAEGKTK came in with an AmyQ secretion efficiency of 2.6.

As to MKKAAAVLLSLGLVFGFSYGAGHVAEKKTK, the AmyQ secretion efficiency turned out to be 6.23.

MKKAAAVLLSLGLVFGFSYGAGHVAELKTK showed an AmyQ secretion efficiency of 6.97.

As to MKKAAAVLLSLGLVFGFSYGAGHVAENKTK, the AmyQ secretion efficiency stood at 4.78.

In the case of MKKAAAVLLSLGLVFGFSYGAGHVAESKTK, the AmyQ secretion efficiency is 4.52.

Regarding MKKAAAVLLSLGLVFGFSYGAGHVAETKTK, the AmyQ secretion efficiency was determined as 5.95.

MKKAAAVLLSLGLVFGFSYGAGHVAEYKTK showed an AmyQ secretion efficiency of 6.37.

For the sequence MKKAAAVLLSLGLVFGFSYGAGHVDEAKTK, the AmyQ secretion efficiency is 7.45.

MKKAAAVLLSLGLVFGFSYGAGHVHEAKTK yielded an AmyQ secretion efficiency of 5.32.

The sequence MKKAAAVLLSLGLVFGFSYGAGHVKEAKTK returned an AmyQ secretion efficiency of 6.72.

MKKAAAVLLSLGLVFGFSYGAGHVMEAKTK returned an AmyQ secretion efficiency of 5.11.

Turning to MKKAAAVLLSLGLVFGFSYGAGHVNEAKTK, the AmyQ secretion efficiency is 5.96.

For MKKAAAVLLSLGLVFGFSYGAGHVQEAKTK, the AmyQ secretion efficiency was 7.17.

Turning to MKKAAAVLLSLGLVFGFSYGAGHVREAKTK, the AmyQ secretion efficiency was found to be 7.77.

The sequence MKKAAAVLLSLGLVFGFSYGAGHVVEAKTK yielded an AmyQ secretion efficiency of 2.99.

Consider MKKAAAVLLSLGLVFGFSYGAGHVVPTAAEAKTK, for which the AmyQ secretion efficiency was 4.57.

Take MKKAAAVLLSLGLVFGFSYGAGHVWEAKTK: the AmyQ secretion efficiency is 5.37.
